Key:
[1] = target: CapP-His (full-length CapP, BC1280, with C-terminal polyhistidine tag) (Bacillus cereus ATCC14579) (UniProt Q81GC7); assay: native gel or EMSA; native PAGE (Any kD Mini-PROTEAN TGX), 25 mM tris, 192 mM glycine, 200 V, NativeMark marker, Coomassie; second SEC peak
[2] = target: the molecule itself; assay: as above

Molecule	stoichiometry N [1]	stoichiometry N [2]
CapP-His (full-length CapP, BC1280, with C-terminal polyhistidine tag) (from UniProt Q81GC7 1-279) (natural protein)	15	–
N-domain(39-190)-His of CapP (domain or fragment, CapP (BC1280) of Bacillus cereus ATCC14579, residues A39 to G190 (N-terminal domain); also called N-terminal domain; N-terminal construct; source: E. coli Lemo21 (DE3) pLysS, pET24b, purified under native conditions (HisTrap, Superdex 75 SEC); not shown: His6, C-terminal, kept) AAFIHETKVEATLSTAIIFPKTVNTLKEQSEKHKQFIEREYGTMKGKLKATSIEEIKQAISVWQQGREKIVAEKEALQNVYTEIEAPYNQIQEELKVNKDESMQQVSIYVNEGFRSIKEKRDYIEKEISLKAIDEQIQALQQQLNVAIEAEG	–	~15

— publication PMC13082335, “Matrix plasticity and the molecular basis of extracellular filament assembly in Bacillus cereus” (Science Advances, 2026)
